Molecular target: T1, 5-270 TNA polymerase (synthetic construct (chimera of Thermococcus/Pyrococcus B-family polymerases)) (UniProt P56689)
T1 sequence: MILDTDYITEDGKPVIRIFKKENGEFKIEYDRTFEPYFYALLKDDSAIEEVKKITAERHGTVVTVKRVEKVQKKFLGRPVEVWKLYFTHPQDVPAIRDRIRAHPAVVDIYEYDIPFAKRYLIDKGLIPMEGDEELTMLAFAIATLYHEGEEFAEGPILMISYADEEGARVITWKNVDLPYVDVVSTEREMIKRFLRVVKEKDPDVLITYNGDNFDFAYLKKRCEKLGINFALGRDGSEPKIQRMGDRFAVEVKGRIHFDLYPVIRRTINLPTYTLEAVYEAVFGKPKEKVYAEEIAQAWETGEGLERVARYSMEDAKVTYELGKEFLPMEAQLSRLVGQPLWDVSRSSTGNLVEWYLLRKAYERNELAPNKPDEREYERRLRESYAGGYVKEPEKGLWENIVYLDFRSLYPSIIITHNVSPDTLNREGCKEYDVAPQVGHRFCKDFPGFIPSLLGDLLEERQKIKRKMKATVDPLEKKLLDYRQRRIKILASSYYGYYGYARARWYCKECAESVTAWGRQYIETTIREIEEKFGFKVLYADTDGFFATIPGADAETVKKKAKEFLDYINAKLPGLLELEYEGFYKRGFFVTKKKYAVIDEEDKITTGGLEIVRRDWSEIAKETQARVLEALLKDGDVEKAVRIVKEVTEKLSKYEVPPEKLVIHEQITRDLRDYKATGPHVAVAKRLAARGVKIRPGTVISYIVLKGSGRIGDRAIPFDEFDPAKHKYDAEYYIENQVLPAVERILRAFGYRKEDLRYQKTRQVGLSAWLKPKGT
Conditions: TNA primer extension; ~2-fold figure is from text on the clone screen

“GTCCCCTTGGGGATACCACC / TCGTTCTCGGACGGAGAGATATTGAANGGTGGTATCCCCAAGGGGAC [PBS8 primer / L30.5 random library template]” showed a binding signal (fold vs Kod-RSGA) of 2.
